Measured values reported in publication PMC7605441.

B1: wild-type murine RAD51AP1 fused to mCherry [mouse] / murine RAD51 with a C-terminal EGFP tag [mouse] (parent)
chain 1: MVRPTRNRKPINYSQFEDSGNDSDDDFISSSTPVNKSKTVPKVLKQDKPKPNLKNLQKEEVLPTEPPKKRVALDDKVFQRGLEVALALSVKELPTLTNQVKKSKEKSTDKQGKEKTENTGKPPRVSNCSVASDDVEDLDKITEEGDASSVEGERKSPSQAKAPRRRAPSEGSDGSSANDTESESATGEGSESDPDFDESKESDEDFGVRRSKESKKKTVQKKPAGEKKERKSKPKCEASVTSVDPAPAAIKSGSPSLPQAVGLPSEATRKPAIMCSPSAESKRPKWVPPAASGSRNSSSNALAGTPAKSPSQSLRLGLSRLAPVKRLHPSATSSQVR
chain 2: MAMQMQLEASADTSVEEESFGPQPISRLEQCGINANDVKKLEEAGYHTVEAVAYAPKKELINIKGISEAKADKILTEAAKLVPMGFTTATEFHQRRSEIIQITTGSKELDKLLQGGIETGSITEMFGEFRTGKTQICHTLAVTCQLPIDRGGGEGKAMYIDTEGTFRPERLLAVAERYGLSGSDVLDNVAYARGFNTDHQTQLLYQASAMMVESRYALLIVDSATALYRTDYSGRGELSARQMHLARFLRMLLRLADEFGVAVVITNQVVAQVDGAAMFAADPKKPIGGNIIAHASTTRLYLRKGRGETRICKIYDSPCLPEAEAMFAINADGVGDAKD

Variants of: B1
Assay: co-immunoprecipitation (IP RAD51AP1, blot RAD51), band quantification
Conditions: asynchronous 293FT cells, transient co-expression, lane 5, parent: 1, read off a plot

| Variant | ratio to parent |
| --- | --- |
| chain 1 T305D | 0.07 |

Variants of: B1
Assay: co-immunoprecipitation (IP GFP-RAD51, blot RAD51AP1), band quantification
Conditions: asynchronous 293FT cells, transient co-expression, lane 15, parent: 1, read off a plot

| Variant | ratio to parent |
| --- | --- |
| chain 1 T305D | 0.32 |

Variants of: B1
Assay: co-immunoprecipitation (IP RAD51AP1, blot RAD51), band quantification
Conditions: asynchronous 293FT cells, transient co-expression, lane 6, parent: 1, read off a plot

| Variant | ratio to parent |
| --- | --- |
| chain 1 S309A | 0.71 |

Variants of: B1
Assay: co-immunoprecipitation (IP GFP-RAD51, blot RAD51AP1), band quantification
Conditions: asynchronous 293FT cells, transient co-expression, lane 16, parent: 1, read off a plot

| Variant | ratio to parent |
| --- | --- |
| chain 1 S309A | 0.53 |

Variants of: B1
Assay: co-immunoprecipitation (IP RAD51AP1, blot RAD51), band quantification
Conditions: asynchronous 293FT cells, transient co-expression, lane 7, parent: 1, read off a plot

| Variant | ratio to parent |
| --- | --- |
| chain 1 S309D | 0.18 |

Variants of: B1
Assay: co-immunoprecipitation (IP GFP-RAD51, blot RAD51AP1), band quantification
Conditions: asynchronous 293FT cells, transient co-expression, lane 17, parent: 1, read off a plot

| Variant | ratio to parent |
| --- | --- |
| chain 1 S309D | 0.57 |

Variants of: B1
Assay: co-immunoprecipitation (IP RAD51AP1, blot RAD51), band quantification
Conditions: asynchronous 293FT cells, transient co-expression, lane 8, parent: 1, read off a plot

| Variant | ratio to parent |
| --- | --- |
| chain 1 T305A S309A | 0.95 |

Variants of: B1
Assay: co-immunoprecipitation (IP GFP-RAD51, blot RAD51AP1), band quantification
Conditions: asynchronous 293FT cells, transient co-expression, lane 18, parent: 1, read off a plot

| Variant | ratio to parent |
| --- | --- |
| chain 1 T305A S309A | 0.45 |

Variants of: B1
Assay: co-immunoprecipitation (IP RAD51AP1, blot RAD51), band quantification
Conditions: asynchronous 293FT cells, transient co-expression, lane 9, parent: 1, read off a plot

| Variant | ratio to parent |
| --- | --- |
| chain 1 T305D S309D | 0.02 |

Variants of: B1
Assay: co-immunoprecipitation (IP GFP-RAD51, blot RAD51AP1), band quantification
Conditions: asynchronous 293FT cells, transient co-expression, lane 19, parent: 1, read off a plot

| Variant | ratio to parent |
| --- | --- |
| chain 1 T305D S309D | 0.08 |
